{
  "source": "patent US20130273567A1",
  "about": "“Screening Method for Candidate Agonist Compounds for Adiponectin Receptor I” (priority 2010, published 2013)",
  "molecules": {"B1": {"name": "adiponectin: recombinant murine full-length adiponectin, internal ligand of adiponectin receptor 1 (protein, UniProt Q60994 1-247, looked up)", "chain": "MLLLQALLFLLILPSHAEDDVTTTEELAPALVPPPKGTCAGWMAGIPGHPGHNGTPGRDGRDGTPGEKGEKGDAGLLGPKGETGDVGMTGAEGPRGFPGTPGRKGEPGEAAYVYRSAFSVGLETRVTVPNVPIRFTKIFYNQQNHYDGSTGKFYCNIPGLYYFSYHITVYMKDVKVSLFKKDKAVLFTYDQYQEKNVDQASGSVLLHLEVGDQVWLQVYGDGDHNGLYADNVNDSTFTGFLLYHDTN", "modifications": "full-length"}},
  "tested_on": "AMPK",
  "test": "AMPK phosphorylation in vivo (skeletal muscle and liver, immunoblotting)",
  "design": "species or system mice",
  "settings": "adiponectin 30 μg per 10 g body weight, 10 min",
  "description": "Mouse full-length adiponectin was generated as described in the following documents (Nature Med. 8, 1288-1295 (2002); Nature Med. 7, 941-946 (2001); Nature 423, 762-769 (2003)).\nReal-time PCR was carried out according to the method described in the following documents (Nature Med. 13, 332-339 2007); Nature 423, 762-769 (2003); J. Biol. Chem. 281, 8748-8755 (2006)). Total RNA was prepared from cells or tissues by using Trizol (Invitrogen) according to the manufacturer's instructions. Quantification of mRNA was conducted using a real-time PCR method (Nature 423, 762-769 (2003)) with slight modifications. The procedures used for immunoblotting are described in the following documents (Nature Med. 7, 941-946 (2001); J. Biol. Chem. 281, 26602-26614 (2006); J. Biol. Chem. 281, 8748-8755 (2006)). The livers or muscles were freeze-clamped in liquid nitrogen in situ (Nature Med. 7, 941-946 (2001); J. Biol. Chem. 281, 26602-26614 (2006); J. Biol. Chem. 281, 8748-8755 (2006)).",
  "data": [
    {"molecule": "B1", "values": [
      {"measurement": "phosphorylation of AMPK in liver", "setting": "both genotypes (control and muscle-R1KO)", "value": "increased"},
      {"measurement": "phosphorylation of AMPK in muscle", "setting": "control littermates", "value": "increased"}
    ]}
  ]
}
